Article PMC10935766 (2024)
Like-named read-outs stand apart in the source and are kept apart here. Values belong to the molecule of their own block, whether it stands above or below them. Non-standard residues stand in square brackets, D forms with d. No end group written: not given here. pY = N[C@@H](Cc1ccc(OP(=O)(O)O)cc1)C(=O)O

Experiments:
E6AP AZUL (Homo sapiens) [1] = biological target: E6AP AZUL (Homo sapiens) (UniProt Q05086); conditions: cited from earlier work
E6AP AZUL (Homo sapiens) [2] = biological target: E6AP AZUL (Homo sapiens) (UniProt Q05086); assay: ITC; conditions: cited from earlier work
E6AP AZUL (Homo sapiens) [3] = biological target: E6AP AZUL (Homo sapiens) (UniProt Q05086); assay: SPR; conditions: cited from earlier work
E6AP AZUL 24-87 [4] = biological target: T1, E6AP AZUL 24-87 (Homo sapiens, UniProt Q05086); assay: fluorescence competition (50 nM S358C-acrylodan, 10 nM AZUL)
T1 chain: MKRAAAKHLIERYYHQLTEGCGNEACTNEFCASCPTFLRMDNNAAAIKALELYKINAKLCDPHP

E6AP AZUL 24-87 [5] = biological target: T1, E6AP AZUL 24-87; assay: fluorescence competition (10 nM S337C-Atto610:AZUL)
E6AP AZUL 24-87 [6] = biological target: T1, E6AP AZUL 24-87; assay: fluorescence competition (100 nM S358C-acrylodan:AZUL)
E6AP AZUL 24-87 [7] = biological target: T1, E6AP AZUL 24-87; assay: fluorescence competition (25 nM S337C-Atto610:AZUL)
E6AP AZUL 24-87 [8] = biological target: T1, E6AP AZUL 24-87; assay: fluorescence competition (25 nM S358C-acrylodan:AZUL)
E6AP AZUL 24-87 [9] = biological target: T1, E6AP AZUL 24-87; assay: ITC
E6AP AZUL 24-87 [10] = biological target: T1, E6AP AZUL 24-87; assay: fluorescence (dual probe)
E6AP AZUL 24-87 [11] = biological target: T1, E6AP AZUL 24-87; assay: fluorescence

Molecule: Rpn10 322-366 (from UniProt P55036)
Kd (E6AP AZUL (Homo sapiens) [1]): 189 nM

Molecule: Rpn10 RAZUL (from UniProt P55036)
Kd (E6AP AZUL (Homo sapiens) [2]): 8.1 nM | Kd (E6AP AZUL (Homo sapiens) [3]): 11.6 nM

B5: Rpn10 RAZUL S337C-Atto610 305-377 (protein)
chain: SADIDASSAMDTSEPAKEEDDYDVMQDPEFLQSVLENLPGVDPNNEAIRNAMGSLASQATKDGKKDKKEEDKK
modifications: S337C labeled with Atto610
Kd (E6AP AZUL 24-87 [10]): 16.3 nM

B6: Rpn10 RAZUL S337C-acrylodan 305-377 (protein)
chain: SADIDASSAMDTSEPAKEEDDYDVMQDPEFLQSVLENLPGVDPNNEAIRNAMGSLASQATKDGKKDKKEEDKK
modifications: S337C labeled with acrylodan
Kd (E6AP AZUL 24-87 [9]): < 35 nM

B7: Rpn10 RAZUL S337C 305-377 (protein)
chain: SADIDASSAMDTSEPAKEEDDYDVMQDPEFLQCVLENLPGVDPNNEAIRNAMGSLASQATKDGKKDKKEEDKK
Kd (E6AP AZUL 24-87 [9]): < 30 nM

Continued, values first:

Ki (E6AP AZUL 24-87 [4]): 42.6 nM
B1: Rpn10 RAZUL peptide Y326p 322-366 (peptide)
chain: EEDD[pY]DVMQDPEFLQSVLENLPGVDPNNEAIRNAMGSLASQATKD

Ki (E6AP AZUL 24-87 [5]): 664 nM | Ki (E6AP AZUL 24-87 [6]): 18200 nM | Ki (E6AP AZUL 24-87 [7]): 780 nM | Ki (E6AP AZUL 24-87 [4]): 28.5 nM | Ki (E6AP AZUL 24-87 [8]): 1260 nM
B2: Rpn10 RAZUL peptide 322-366 (peptide)
chain: EEDDYDVMQDPEFLQSVLENLPGVDPNNEAIRNAMGSLASQATKD

Kd (E6AP AZUL 24-87 [9]): 6.9 nM
B3: Rpn10 RAZUL S361C 305-377 (protein)
chain: SADIDASSAMDTSEPAKEEDDYDVMQDPEFLQSVLENLPGVDPNNEAIRNAMGSLACQATKDGKKDKKEEDKK

Kd (E6AP AZUL 24-87 [10]): 2.97 nM | Kd (E6AP AZUL 24-87 [11]): ~18 nM
B4: Rpn10 RAZUL S358C-acrylodan 305-377 (protein)
chain: SADIDASSAMDTSEPAKEEDDYDVMQDPEFLQSVLENLPGVDPNNEAIRNAMGSLASQATKDGKKDKKEEDKK
modifications: S358C labeled with acrylodan

Kd (E6AP AZUL 24-87 [9]): < 30 nM
B8: Rpn10 RAZUL S358C 305-377 (protein)
chain: SADIDASSAMDTSEPAKEEDDYDVMQDPEFLQSVLENLPGVDPNNEAIRNAMGCLASQATKDGKKDKKEEDKK
